From US20210324080A1 (JIANGSU HUAIYU PHARMACEUTICAL, published 2021)
Changes are numbered by the printed parent chain. One block for each binder: values may come before it.

How the values were obtained:
[1] = biological target: T1, human CTLA-4 (Y201V), full length, on transfected cells (human, UniProt P16410 36-223); test: FACS, human CTLA-4 expressing cells
T1 construct: whole, on cells; also called hCTLA-4; HEK293-hCTLA-4 (Y201V)
T1 sequence (looked up): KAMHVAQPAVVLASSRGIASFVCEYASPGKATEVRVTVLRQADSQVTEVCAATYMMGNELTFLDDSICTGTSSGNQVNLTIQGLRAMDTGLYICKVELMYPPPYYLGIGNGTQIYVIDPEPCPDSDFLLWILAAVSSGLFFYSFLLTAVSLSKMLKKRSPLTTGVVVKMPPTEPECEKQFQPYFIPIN

[2] = biological target: T2, CTLA-4-hFc (immunogen A; hFc-labeled CTLA-4 extracellular domain protein) (human, UniProt P16410 36-161); test: blocking assay, CTLA-4 protein, competitor B7.2
T2 construct: range 36-161; Made in HEK293 cells, purified on protein A; also called CLTA-4-hFc; CTLA-4 protein; not shown: human IgG Fc fragment (hFc) of the pCpC vector
T2 sequence (looked up): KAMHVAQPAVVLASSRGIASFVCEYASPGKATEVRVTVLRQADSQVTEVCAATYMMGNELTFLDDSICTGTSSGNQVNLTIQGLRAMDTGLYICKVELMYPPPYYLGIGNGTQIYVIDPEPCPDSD
Description: (§1) CTLA-4 extracellular domain protein (CTLA-4-hFc) was diluted with PBS to a final concentration of 1.0 μg/mL, and then added to a 96-well ELISA plate as 100 μl per well. The plate was covered with a plastic film and incubated overnight at 4° C. The plate was washed twice with plate washing solution [PBS containing 0.01% (v/v) Tween 20] on the next day, and added with blocking solution [PBS containing 0.01% (v/v) Tween 20 and 1% (w/w) BSA] and blocked at room temperature for 2 hours. […] After 2 hours, the plate was washed 3 times with a plate washing solution [PBS containing 0.01% (v/v) Tween 20]. HRP (horseradish peroxidase) labeled avidin diluent (purchased from Sigma) was added 100 microliters per well, and after the plate was incubated for 2 hours at 37° C., it was washed with plate washing solution [PBS containing 0.01% (v/v) Tween 20] for 3 times. […] TMB substrate was added to each well. After incubated at room temperature for 30 minutes, the plate was added with […] stop solution (1.0N HCl) to each well. An ELISA plate reader (SpectraMax 384plus, Molecular Device) was used to read the A450 nm value.

[3] = biological target: T3, CTLA-4 on human T lymphocytes (PBMC, CD3+ T cells) (human, UniProt P16410 36-223); test: cell-based or functional assay
T3 sequence (looked up): T1 sequence (looked up) with V166Y

[4] = biological target: T4, monkey CTLA-4, full length, on transfected HEK293 cells (monkey); test: FACS, monkey CTLA-4 expressing cells
T4 construct: whole, on cells; also called cCTLA-4; HEK293-cCTLA-4
Source text: (§2) The pIRES plasmid with the monkey-derived CTLA-4 full-length gene was transfected into the HEK293 cell line to construct a HEK293 stable cell line containing monkey CTLA-4 (herein referred to as HEK293-cCTLA-4 stable cell line), wherein the database accession number of the monkey CTLA-4 nucleotide sequence is XM_005574014.1. The HEK293-hCTLA-4 stable cell line and HEK293-cCTLA-4 stable cell line were expanded in a T-75 cell culture flask to a 90% confluence. The medium was aspirated, and the cells were washed with HBSS buffer (Hanks Balanced Salt Solution, purchased from Invitrogen) twice, then treated with an enzyme-free cell dissociation fluid (Versene solution, purchased from Life technology) and the cells were collected. The cells were washed with HBSS buffer twice. After counted, the cells were diluted with HBSS buffer to 2×10⁶ cells per ml, added with 1% goat serum blocking solution, wherein the percentage was the mass percantage. Cells were incubated on ice for 30 minutes, then washed twice with HBSS buffer by centrifugation. The collected cells were suspended in the FACS buffer (HBSS containing 1% BSA, wherein the percentage was the mass percantage) to 2×10⁶ cells/ml, added as 100 microliters per well to a 96-well FACS reaction plate, added with 100 microliters per well of the purified CTLA-4 antibody sample to be tested, incubated on ice for 2 hours. The plate was washed twice with the FACS buffer by centrifugation, added with 100 microliters of fluorescent (Alexa 488)-labeled secondary antibodies (purchased from Invitrogen) per well, and incubated on ice for 1 hour. The plate was washed 3 times with FACS buffer by centrifugation, added with 100 μl fixative solution [4% (v/v) Paraformaldehyde] per well to suspend the cells. 10 minutes later, it was washed 2 times with FACS buffer by centrifugation. The cells were suspended with 100 microliters of FACS buffer, FACS (FACS Calibur, purchased from BD) was used for detection and the results were analyzed.

[5] = biological target: T5, recombinant His-labeled hCTLA-4 ECD protein (human, UniProt P16410 36-161); test: SPR Biacore T200, antibody captured by anti-human Fc, 1:1 model
T5 construct: extracellular domain; also called human CTLA-4 ECD; not shown: His label
T5 sequence (looked up): T2 sequence (looked up)
Description: Anti-human Fc IgG was fixed on flow cell 1 and 2. HBS-EP+ (10 mmol/L HEPES, 150 mmol/L NaCl, 3 mM EDTA, 0.05% P20, pH 7.4) was used as the running buffer, and anti-human Fc IgG was fixed using the fixing wizard template. The flow cells 1 and 2 connected in series with S CM5 sensor chip were activated with freshly mixed 50 mmol/L NHS and 200 mmol/L EDC. Anti-human Fc IgG was diluted to […] with 10 mmol/L NaAC (pH 4.5) and injected into activated flow cells 1 and 2. The remaining active coupling sites were blocked with 1 mol/L ethanolamine.
The recombinant His-labeled hCTLA-4 ECD protein was diluted to 50 nmol/L, and then serially diluted 4 times with HBS-EP+ buffer at a 2-fold ratio. […] Each antibody was injected into the CM5 sensor flow cell 2 at a flow rate of 10 μL/min to achieve a response of 230 RU. Then the prepared His-labeled hCTLA-4ECD protein was injected into flow cells 1 and 2 at a flow rate of 30 μL/min for 180 seconds. The buffer flow was maintained for 400 seconds for dissociation measurement (30 μL/min). To remove the tested antibody from the surface, 10 mmol/L glycine-HCl pH1.5 was injected for 20 seconds (30 μL/min). Flow cell 1 was used as a reference flow cell. The above steps were repeated for each concentration of serially diluted His-labeled CTLA-4ECD protein. The KD value of each antibody was evaluated using Biacore T200 evaluation software 1.0, and a 1:1 binding model was used to fit the data.

[6] = biological target: T4, monkey CTLA-4, full length, on …; test: FACS, 293F-cCTLA-4 cells
Source text: as §2

[7] = biological target: T2, CTLA-4-hFc (immunogen A; hFc-labeled …); test: competition ELISA: CTLA-4-hFc coated, antibody titrated, blocked ligand biotin-labeled B7.2-hFc, HRP-avidin, A450, inhibition (%)
Description: as §1

[8] = biological target: T2, CTLA-4-hFc (immunogen A; hFc-labeled …); test: competition ELISA: CTLA-4-hFc coated, antibody titrated, blocked ligand biotin-labeled B7.1-hFc, HRP-avidin, A450, inhibition (%)
Description: as §1

[9] = biological target: T2, CTLA-4-hFc (immunogen A; hFc-labeled …); test: ELISA, coated CTLA-4-hFc, competitor biotin-B7.2-hFc
Description: as §1

[10] = biological target: T2, CTLA-4-hFc (immunogen A; hFc-labeled …); test: ELISA, coated CTLA-4-hFc, competitor biotin-B7.1-hFc
Description: as §1

[11] = biological target: T1, human CTLA-4 (Y201V), full length, on …; test: FACS, CHOK1-hCTLA-4 cells

MFI at 0.000128 nM [1]: 3
MFI at 0.0128 nM [1]: 31
MFI at 0.064 nM [1]: 85
MFI at 0.32 nM [1]: 229
MFI at 1.6 nM [1]: 491
MFI at 8 nM [1]: 727
MFI at 40 nM [1]: 902
MFI at 200 nM [1]: 886
% Block at 0.000128 nM [2]: 0%
% Block at 0.0128 nM [2]: 26.3%
% Block at 0.064 nM [2]: 42.8%
% Block at 0.32 nM [2]: 82.3%
% Block at 1.6 nM [2]: 98.7%
% Block at 8 nM [2]: 99%
% Block at 40 nM [2]: 99%
% Block at 200 nM [2]: 99.1%
IL-2 secretion, pg/ml, at 0.13 ug/ml, N = 1 [3]: 1570 pg/mL
IL-2 secretion, pg/ml, at 0.13 ug/ml, N = 2 [3]: 1450 pg/mL
IL-2 secretion, pg/ml, at 0.37 ug/ml, N = 1 [3]: 2480 pg/mL
IL-2 secretion, pg/ml, at 0.37 ug/ml, N = 2 [3]: 1860 pg/mL
IL-2 secretion, pg/ml, at 1.1 ug/ml, N = 1 [3]: 3460 pg/mL
IL-2 secretion, pg/ml, at 1.1 ug/ml, N = 2 [3]: 2560 pg/mL
IL-2 secretion, pg/ml, at 3.3 ug/ml, N = 1 [3]: 4240 pg/mL
IL-2 secretion, pg/ml, at 3.3 ug/ml, N = 2 [3]: 4200 pg/mL
IL-2 secretion, pg/ml, at 10 ug/ml, N = 1 [3]: 6650 pg/mL
IL-2 secretion, pg/ml, at 10 ug/ml, N = 2 [3]: 5210 pg/mL
IL-2 secretion, pg/ml, at 30 ug/ml, N = 1 [3]: 7650 pg/mL
IL-2 secretion, pg/ml, at 30 ug/ml, N = 2 [3]: 8210 pg/mL
MFI at 0.000128 nM [4]: 2
MFI at 0.0128 nM [4]: 36
MFI at 0.064 nM [4]: 97
MFI at 0.32 nM [4]: 270
MFI at 1.6 nM [4]: 504
MFI at 8 nM [4]: 757
MFI at 40 nM [4]: 810
MFI at 200 nM [4]: 784
Kd [5]: 3.5 nM
koff [5]: 0.00151 s⁻¹
kon [5]: 431000 M⁻¹ s⁻¹
B1: 97B8E1 fully human CTLA-4 antibody (human IgG1, kappa) (antibody, V domains shown)
VH: QVQLVESGGGVVQPGRSLRLSCAASGFTFSSYVMHWVRQAPGKGLEWVAVIWSDGRNKYYTDSVKGRFTISRDNSKNTLYLQMSSLRAEDTAVYYCARSGIALAGNAFDIWGQGTMVTVSS
VL: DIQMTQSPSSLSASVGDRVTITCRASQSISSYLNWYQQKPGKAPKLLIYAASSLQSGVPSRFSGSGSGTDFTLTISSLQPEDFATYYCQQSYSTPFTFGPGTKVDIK
notes: also called mAb50; mAb050

MFI at 0.000128 nM [6]: 2.4
MFI at 0.0128 nM [6]: 23
MFI at 0.064 nM [6]: 68.6
MFI at 0.32 nM [6]: 219
MFI at 1.6 nM [6]: 421
MFI at 8 nM [6]: 619
MFI at 40 nM [6]: 626
MFI at 200 nM [6]: 643
IC50 (read off the curve) [7]: ~0.5 nM
IC50 (read off the curve) [8]: ~0.3 nM
Inhibition rate (%) at 0.00091 nM [9]: 0%
Inhibition rate (%) at 0.091 nM [9]: 5.3%
Inhibition rate (%) at 0.274 nM [9]: 26.4%
Inhibition rate (%) at 0.823 nM [9]: 53.3%
Inhibition rate (%) at 2.5 nM [9]: 66.6%
Inhibition rate (%) at 7.4 nM [9]: 76.6%
Inhibition rate (%) at 22.2 nM [9]: 84.6%
Inhibition rate (%) at 66.7 nM [9]: 88.7%
Inhibition rate (%) at 0.00091 nM [10]: 0%
Inhibition rate (%) at 0.091 nM [10]: 12.7%
Inhibition rate (%) at 0.274 nM [10]: 40%
Inhibition rate (%) at 0.823 nM [10]: 63.1%
Inhibition rate (%) at 2.5 nM [10]: 75.2%
Inhibition rate (%) at 7.4 nM [10]: 80.7%
Inhibition rate (%) at 22.2 nM [10]: 87.5%
Inhibition rate (%) at 66.7 nM [10]: 89.7%
MFI at 0.07 nM [11]: 43.3
MFI at 0.67 nM [11]: 146
MFI at 6.67 nM [11]: 403
MFI at 66.67 nM [11]: 449
B2: 40C4C6 (chimeric antibody purified from hybridoma supernatant) (antibody, V domains shown)
VH: QVQLVESGGGVVQPGRSLRLSCAASGFTFSSYGMHWVRQAPGKGLEWVAVIWYDGRNKYYADSVKGRFTISRDNSKNTLYLQMNSLRAEDTAVYYCARASGSYSYYFDYWGQGTLVTVSS
VL: DIQMTQSPSSLSASVGGRVTITCRASQSISSFLNWYQHELGKAPKLLIYGASSLQSGVPSRFSGSGSGTDFTLTISSLQPEDFATYYCQQTYSTPFTFGPGTKVDIK
notes: also called mAb09; mAb009
